Test results from patent US11814439 (TG THERAPEUTICS, dated 2023).

What was measured:
Test in all cases: cell-based or functional assay
[1] = target: C1q Receptor in the complement system (rabbit serum as the source of complement) (rabbit)
[2] = target: T1, FcγIIIA Receptor on the effector cells (CD16 / FcγRIII) (human, UniProt P08637 17-254)
[3] = target: T1, FcγIIIA Receptor on the effector cells …; remark: listed apart in the source
[4] = target: T1, FcγIIIA Receptor on the effector cells …; remark: listed apart in the source

T1 sequence (P08637 17-254): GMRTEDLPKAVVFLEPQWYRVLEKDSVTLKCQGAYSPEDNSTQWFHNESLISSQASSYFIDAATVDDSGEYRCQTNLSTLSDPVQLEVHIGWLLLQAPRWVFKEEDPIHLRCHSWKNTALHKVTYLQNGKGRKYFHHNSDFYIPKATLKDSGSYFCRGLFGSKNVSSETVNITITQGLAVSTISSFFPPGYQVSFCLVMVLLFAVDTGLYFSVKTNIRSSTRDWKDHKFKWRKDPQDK

B1: TG-1101 (TG Therapeutics, Inc.) (antibody, human IgG1, kappa)
heavy: not shown
light: QIVLSQSPAILSASPGEKVTMTCRASSSVSYMHWYQQKPGSSPKPWIYATSNLASGVPARFSGSGSGTSYSFTISRVEAEDAATYYCQQWTFNPPTFGGGTRLEIKRTVAAPSVFIFPPSDEQLKSGTASVVCLLNNFYPREAKVQWKVDNALQSGNSQESVTEQDSKDSTYSLSSTLTLSKADYEKHKVYACEVTHQGLSSPVTKSFNRGEC
CDC EC50 (Jeko-1 cells, rabbit complement) [1]: 670 ng/mL | ADCC EC50 (Raji target cells, KILR CD16a effector cells) [2]: 0.00242 ng/mL | ADCC EC50, fold lower than OCREVUS [3]: ~25 fold | EC50 of ADCC assay Using Primary NK Cells [4]: 49000 ng/mL
